Reference: IntAct's records for PubMed 24910198

B1: TIMELESS-interacting protein (Homo sapiens), Q9BVW5 (parent)
chain: MLEPQENGVIDLPDYEHVEDETFPPFPPPASPERQDGEGTEPDEESGNGAPVRVPPKRTVKRNIPKLDAQRLISERGLPALRHVFDKAKFKGKGHEAEDLKMLIRHMEHWAHRLFPKLQFEDFIDRVEYLGSKKEVQTCLKRIRLDLPILHEDFVSNNDEVAENNEHDVTSTELDPFLTNLSESEMFASELSRSLTEEQQQRIERNKQLALERRQAKLLSNSQTLGNDMLMNTPRAHTVEEVNTDEDQKEESNGLNEDILDNPCNDAIANTLNEEETLLDQSFKNVQQQLDATSRNITEAR
B2: SWI/SNF-related matrix-associated actin-dependent regulator of chromatin subfamily A-like protein 1 (Homo sapiens), Q9NZC9 (parent)
chain: MSLPLTEEQRKKIEENRQKALARRAEKLLAEQHQRTSSGTSIAGNPFQAKQGPSQNFPRESCKPVSHGVIFKQQNLSSSSNADQRPHDSHSFQAKGIWKKPEEMPTACPGHSPRSQMALTGISPPLAQSPPEVPKQQLLSYELGQGHAQASPEIRFTPFANPTHKPLAKPKSSQETPAHSSGQPPRDAKLEAKTAKASPSGQNISYIHSSSESVTPRTEGRLQQKSGSSVQKGVNSQKGKCVRNGDRFQVLIGYNAELIAVFKTLPSKNYDPDTKTWNFSMNDYSALMKAAQSLPTVNLQPLEWAYGSSESPSTSSEGQAGLPSAPSLSFVKGRCMLISRAYFEADISYSQDLIALFKQMDSRRYDVKTRKWSFLLEEHSKLIAKVRCLPQVQLDPLPTTLTLAFASQLKKTSLSLTPDVPEADLSEVDPKLVSNLMPFQRAGVNFAIAKGGRLLLADDMGLGKTIQAICIAAFYRKEWPLLVVVPSSVRFTWEQAFLRWLPSLSPDCINVVVTGKDRLTAGLINIVSFDLLSKLEKQLKTPFKVVIIDESHFLKNSRTARCRAAMPVLKVAKRVILLSGTPAMSRPAELYTQIIAVKPTFFPQFHAFGLRYCDAKRMPWGWDYSGSSNLGELKLLLEEAVMLRRLKSDVLSQLPAKQRKIVVIAPGRINARTRAALDAAAKEMTTKDKTKQQQKDALILFFNRTAEAKIPSVIEYILDLLESGREKFLVFAHHKVVLDAITQELERKHVQHIRIDGSTSSAEREDLCQQFQLSERHAVAVLSITAANMGLTFSSADLVVFAELFWNPGVLIQAEDRVHRIGQTSSVGIHYLVAKGTADDYLWPLIQEKIKVLAEAGLSETNFSEMTESTDYLYKDPKQQKIYDLFQKSFEKEGSDMELLEAAESFDPGSASGTSGSSSQNMGDTLDESSLTASPQKKRRFEFFDNWDSFTSPL

Variants of: B1
Conditions: with rfa2_human RPA2, P15927
Target sequence in this assay (P15927 whole entry): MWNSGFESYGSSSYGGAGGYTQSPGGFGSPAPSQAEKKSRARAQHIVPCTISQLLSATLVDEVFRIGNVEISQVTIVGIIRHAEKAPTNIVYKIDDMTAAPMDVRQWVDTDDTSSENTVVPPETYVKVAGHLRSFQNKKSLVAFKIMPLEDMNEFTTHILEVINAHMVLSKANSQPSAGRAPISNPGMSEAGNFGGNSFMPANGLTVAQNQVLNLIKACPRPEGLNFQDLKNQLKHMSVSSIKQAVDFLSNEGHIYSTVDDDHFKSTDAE

| Variant | effect of a mutation on the interaction |
| --- | --- |
| MLEPQENGVIDLPDYEHVEDETFPPFPPPASPERQDGEGTEPDEESGNGAPVRVPPKRTVKRNIPKLDAQRLISERGLPALRHVFDKAKFKGKGHEAEDLKMLIRHMEHWAHRLFPKLQFEDFIDRVEYLGSKKEVQTCLKRIRLDLPILHEDFVSNNDEVAENNEHDVTSTELDPFLTNLSESEMFASELSRSATEEQQQRIERNKQLALERRQAKLLSNSQTLGNDMLMNTPRAHTVEEVNTDEDQKEESNGLNEDILDNPCNDAIANTLNEEETLLDQSFKNVQQQLDATSRNITEAR [L195A] | decreasing interaction |

Variants of: B2
Conditions: with rfa2_human RPA2, P15927
Target sequence in this assay (P15927 whole entry): as the sequence (P15927 whole entry) above

| Variant | effect of a mutation on the interaction |
| --- | --- |
| L5A | decreasing interaction |

Variants of: B2
Conditions: with rfa2_human RPA2, P15927
Remark: another data set of the same source
Target sequence in this assay (P15927 whole entry): as the sequence (P15927 whole entry) above

| Variant | effect of a mutation on the interaction |
| --- | --- |
| Q9A | decreasing interaction |

Variants of: B2
Conditions: with rfa2_human RPA2, P15927
Remark: another data set of the same source
Target sequence in this assay (P15927 whole entry): as the sequence (P15927 whole entry) above

| Variant | effect of a mutation on the interaction |
| --- | --- |
| K27A | decreasing interaction |

Variants of: B2
Conditions: with rfa2_human RPA2, P15927
Remark: another data set of the same source
Target sequence in this assay (P15927 whole entry): as the sequence (P15927 whole entry) above

| Variant | effect of a mutation on the interaction |
| --- | --- |
| R17A;Q18A;K19A | decreasing interaction |

Variants of: B2
Conditions: with rfa2_human RPA2, P15927
Remark: another data set of the same source
Target sequence in this assay (P15927 whole entry): as the sequence (P15927 whole entry) above

| Variant | effect of a mutation on the interaction |
| --- | --- |
| N16A;R17A | decreasing interaction |

Variants of: B2
Conditions: with rfa2_human RPA2, P15927
Remark: another data set of the same source

| Variant | effect of a mutation on the interaction |
| --- | --- |
| A20S;L21S | decreasing interaction |

Variants of: B2
Conditions: with rfa2_human RPA2, P15927
Remark: another data set of the same source

| Variant | effect of a mutation on the interaction |
| --- | --- |
| K12A;I13A | decreasing interaction |
